B1: peptide 35-47 of mCRP (peptide)
peptide: VCLHFYTELSSTR
notes: peptide 35-47 derived from mCRP (C-reactive protein); Biotinylated and nonbiotinylated peptides were synthesized; also called a.a.35-47; mCRP a.a.35-47; source: synthetic peptide (GenScript, >95% purity)
B2: peptide A08 (peptide)
peptide: GRPGRRGRPGLKG
notes: peptide from the collagen like region (CLR) of the C1q-A chain; Biotinylated and nonbiotinylated peptides were synthesized; also called C1qA08; source: synthetic peptide (GenScript, >95% purity)
B3: monomeric CRP (mCRP) (natural protein, UniProt P02741 19-224, looked up)
chain: QTDMSRKAFVFPKESDTSYVSLKAPLTKPLKAFTVCLHFYTELSSTRGYSIFSYATKRQDNEILIFWSKDIGYSFTVGGSEILFEVPEVTVAPVHICTSWESASGIVEFWVDGKPRVRKSLKKGYTVGAEASIILGQEQDSFGGNFEGSQSLVGDIGNVNMWDFVLSPDEINTIYLGGPFSPNVLNWRALKYEVQGEVFTKPQLWP
notes: C-reactive protein, monomeric (dissociated, denatured) form; Same protein in all assays: purified mCRP in solution or coated on plates; for SPR with the C1q peptides pentameric CRP was coupled to the chip and turned into mCRP by urea/EDTA, because mCRP precipitated in acetate buffer; also called monomeric C-reactive protein; urea-denatured mCRP; source: urea-denatured mCRP on the microplate; on …
B4: peptide 199-206 of mCRP (peptide)
peptide: FTKPQLWP
notes: peptide 199-206 derived from mCRP (C-reactive protein); Biotinylated and nonbiotinylated peptides were synthesized; also called a.a.199-206; source: synthetic peptide (GenScript, >95% purity)
B5: peptide B78 (peptide)
peptide: PGKVGPKGPMGPK
notes: peptide from the collagen like region (CLR) of the C1q-B chain; Biotinylated and nonbiotinylated peptides were synthesized; source: synthetic peptide (GenScript, >95% purity)

Legend:
[1] = molecular target: T1, human complement component C1q (human, UniProt P02745 23-245; P02746 28-253; P02747 29-245); assay: SPR; Biacore T200; C1q coupled to a CM5 chip; mCRP or peptides a.a.35-47, a.a.199-206 injected at 30 μl/min in PBS with 0.05% P-20; steady-state curve for a.a.35-47; details: both partners purified
T1 construct: complement C1q, A chain, human; complement C1q, B chain, human; complement C1q, C chain, human; also called human C1q; copies: 6 + 6 + 6

monomeric CRP (mCRP) = molecular target: B3; assay: SPR; Biacore T200; CRP immobilised on a CM5 chip and denatured to mCRP by 200 s of 8 M urea and 5 mM EDTA; peptides A08, B78, A08-C injected at 30 μl/min in PBS with 0.05% P-20; details: both partners purified

T1 sequence (P02745 23-245, chain 1 of 3): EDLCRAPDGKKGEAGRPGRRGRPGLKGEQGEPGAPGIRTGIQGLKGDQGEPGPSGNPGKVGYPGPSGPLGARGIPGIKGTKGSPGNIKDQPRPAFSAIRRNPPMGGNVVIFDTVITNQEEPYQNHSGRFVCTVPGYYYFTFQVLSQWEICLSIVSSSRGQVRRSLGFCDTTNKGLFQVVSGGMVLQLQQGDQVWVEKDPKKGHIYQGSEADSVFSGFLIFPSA
T1 sequence (P02746 28-253, chain 2 of 3): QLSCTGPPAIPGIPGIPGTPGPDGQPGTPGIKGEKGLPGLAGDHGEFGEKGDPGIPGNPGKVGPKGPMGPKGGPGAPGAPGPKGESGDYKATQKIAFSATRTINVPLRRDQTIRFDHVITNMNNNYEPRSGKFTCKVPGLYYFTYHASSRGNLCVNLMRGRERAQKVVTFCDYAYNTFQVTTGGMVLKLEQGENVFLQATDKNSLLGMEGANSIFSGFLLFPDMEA
T1 sequence (P02747 29-245, chain 3 of 3): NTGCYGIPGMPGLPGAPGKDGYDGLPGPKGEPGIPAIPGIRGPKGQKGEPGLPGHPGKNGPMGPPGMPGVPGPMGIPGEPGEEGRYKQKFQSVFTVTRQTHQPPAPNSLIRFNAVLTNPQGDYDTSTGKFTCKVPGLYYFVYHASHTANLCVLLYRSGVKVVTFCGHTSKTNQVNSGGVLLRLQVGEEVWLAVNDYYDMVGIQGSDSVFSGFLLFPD

Kd [1] [µM]	Kd (monomeric CRP (mCRP)) [µM]	Binder
2.94	–	B1
–	4.7	B2
7.37e-05	–	B3
890	–	B4
–	3500	B5

From publication PMC10150958, “Combination of anti-C1qA08 and anti-mCRP a.a.35-47 antibodies is associated with renal prognosis of patients with lupus nephritis” (Frontiers in Immunology, 2023)
